Residue numbers refer to the chain shown, from its start. Each block holds one binder with its values, some of them ahead of it.
Molecular target: human RXFP1, full-length (human), Q9HBX9
Test: cell-based or functional assay

human RXFP1, full-length (human), Q9HBX9, sequence (Q9HBX9 whole entry): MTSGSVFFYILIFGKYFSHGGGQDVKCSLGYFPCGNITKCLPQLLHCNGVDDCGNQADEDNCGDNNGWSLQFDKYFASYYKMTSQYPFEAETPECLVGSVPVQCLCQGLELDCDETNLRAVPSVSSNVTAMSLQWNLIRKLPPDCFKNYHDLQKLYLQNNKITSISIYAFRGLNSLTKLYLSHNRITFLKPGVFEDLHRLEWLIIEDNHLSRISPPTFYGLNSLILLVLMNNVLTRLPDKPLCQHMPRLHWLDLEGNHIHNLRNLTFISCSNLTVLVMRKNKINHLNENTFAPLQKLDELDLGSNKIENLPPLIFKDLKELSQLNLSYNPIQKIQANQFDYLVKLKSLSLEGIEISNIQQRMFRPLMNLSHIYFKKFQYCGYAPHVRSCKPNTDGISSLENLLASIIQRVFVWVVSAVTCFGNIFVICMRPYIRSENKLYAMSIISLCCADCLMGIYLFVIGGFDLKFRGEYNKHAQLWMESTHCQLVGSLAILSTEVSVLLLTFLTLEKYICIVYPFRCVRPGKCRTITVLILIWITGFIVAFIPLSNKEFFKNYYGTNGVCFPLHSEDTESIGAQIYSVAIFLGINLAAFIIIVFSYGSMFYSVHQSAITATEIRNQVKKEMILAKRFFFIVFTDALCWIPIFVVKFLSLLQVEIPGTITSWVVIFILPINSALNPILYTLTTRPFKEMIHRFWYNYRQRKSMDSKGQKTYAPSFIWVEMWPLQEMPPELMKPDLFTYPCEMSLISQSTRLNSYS

- Potency Assay EC50 (nM), transient hRXFP1 cAMP assay: 2.5 nM
B1: SEQ ID NO: 204 (Fc fusion)
chain: DKTHTCPPCPAPEAAGGPSVFLFPPKPKDTLMISRTPEVTCVVVDVSHEDPEVKFNWYVDGVEVHNAKTKPREEQYNSTYRVVSVLTVLHQDWLNGKEYKCKVSNKALAAPIEKTISKAKGQPREPQVYTLPPSRDELTKNQVSLTCLVKGFYPSDIAVEWESNGQPENNYKTTPPVLDSDGSFFLYSKLTVDKSRWQQGNVFSCSVLHEALHSHYTQKSLSLSPGKGGSDSWKEEVIKLCGRELVRAQIAICGKSTGGGEGGGEGGGEGRQLYSALANKCCHVGCTKRSLARFC

- Potency Assay EC50 (nM), transient hRXFP1 cAMP assay: 10.2 nM
B2: SEQ ID NO: 74 (Fc fusion)
chain: B1 chain with K234Q, G262E, E265G, G266E, G267E, E269G, R293Q

- Potency Assay EC50 (nM), transient hRXFP1 cAMP assay: 2.9 nM
B3: SEQ ID NO: 206 (Fc fusion)
chain: B1 chain with K234M

- Potency Assay EC50 (nM), transient hRXFP1 cAMP assay: 5.8 nM
B4: SEQ ID NO: 72 (Fc fusion)
chain: B1 chain with K234Q, G262E, E265G, G266E, G267E, E269G

- Potency Assay EC50 (nM), transient hRXFP1 cAMP assay: 117 nM
B5: SEQ ID NO: 79 (Fc fusion)
chain: B1 chain with K234Q, L273D, R293Q

- Potency Assay EC50 (nM), transient hRXFP1 cAMP assay: 2.5 nM
B6: SEQ ID NO: 57 (Fc fusion)
chain: B1 chain with K234Q

- Potency Assay EC50 (nM), transient hRXFP1 cAMP assay: 62.8 nM
B7: SEQ ID NO: 209 (Fc fusion)
chain: B1 chain with K234Q, G260E, E261G, G264E, R271G

- Potency Assay EC50 (nM), transient hRXFP1 cAMP assay: 60.3 nM
B8: SEQ ID NO: 208 (Fc fusion)
chain: B1 chain with K234M, G260E, E261G, G264E, R271G

- Potency Assay EC50 (nM), transient hRXFP1 cAMP assay: 4.2 nM
B9: SEQ ID NO: 66 (Fc fusion)
chain: B1 chain with K234Q, R293Q

- Potency Assay EC50 (nM), transient hRXFP1 cAMP assay: 18.9 nM
B10: SEQ ID NO: 82 (Fc fusion)
chain: B1 chain with K234Q, G260E, E261G, G262E, G267E, E269G, G270S, R293Q

- Potency Assay EC50 (nM), transient hRXFP1 cAMP assay: 23.4 nM
B11: SEQ ID NO: 78 (Fc fusion)
chain: DKTHTCPPCPAPEAAGGPSVFLFPPKPKDTLMISRTPEVTCVVVDVSHEDPEVKFNWYVDGVEVHNAKTKPREEQYNSTYRVVSVLTVLHQDWLNGKEYKCKVSNKALAAPIEKTISKAKGQPREPQVYTLPPSRDELTKNQVSLTCLVKGFYPSDIAVEWESNGQPENNYKTTPPVLDSDGSFFLYSKLTVDKSRWQQGNVFSCSVLHEALHSHYTQKSLSLSPGGGSDSWQEEVIKLCGRELVRAQIAICGKSTGGGEEGGGEEGGGRQLYSALANKCCHVGCTKRSLAQFC

- EC50 in nM (cAMP Response in RXFP1 Transfected HEK293 Cells): 0.042 nM
- Potency Assay EC50 (nM), transient hRXFP1 cAMP assay: 0.1 nM
- pEC50 (cAMP Response in RXFP1 Transfected HEK293 Cells): 10.4
B12: Relaxin-2 (R&D Biosystems 6586-RN-025) (ligand)
chain 1: DSWMEEVIKLCGRELVRAQIAICGMSTWS
chain 2: QLYSALANKCCHVGCTKRSLARFC

- Potency Assay EC50 (nM), transient hRXFP1 cAMP assay: 12.3 nM
B13: SEQ ID NO: 205 (Fc fusion)
chain: DKTHTCPPCPAPEAAGGPSVFLFPPKPKDTLMISRTPEVTCVVVDVSHEDPEVKFNWYVDGVEVHNAKTKPREEQYNSTYRVVSVLTVLHQDWLNGKEYKCKVSNKALAAPIEKTISKAKGQPREPQVYTLPPSRDELTKNQVSLTCLVKGFYPSDIAVEWESNGQPENNYKTTPPVLDSDGSFFLYSKLTVDKSRWQQGNVFSCSVLHEALHSHYTQKSLSLSPGKGGSDSWKEEVIKLCGRELVRAQIAICGKSTGGGEGGGEGGGEGGGQLYSALANKCCHVGCTKRSLARFC

- Potency Assay EC50 (nM), transient hRXFP1 cAMP assay: 16 nM
B14: SEQ ID NO: 207 (Fc fusion)
chain: B13 chain with K234M

- Potency Assay EC50 (nM), transient hRXFP1 cAMP assay: 15.8 nM
B15: SEQ ID NO: 60 (Fc fusion)
chain: B13 chain with K234Q

- Potency Assay EC50 (nM), transient hRXFP1 cAMP assay: 0.5 nM
B16: SEQ ID NO: 212 (Fc fusion)
chain: DKTHTCPPCPAPEAAGGPSVFLFPPKPKDTLMISRTPEVTCVVVDVSHEDPEVKFNWYVDGVEVHNAKTKPREEQYNSTYRVVSVLTVLHQDWLNGKEYKCKVSNKALAAPIEKTISKAKGQPREPQVYTLPPSRDELTKNQVSLTCLVKGFYPSDIAVEWESNGQPENNYKTTPPVLDSDGSFFLYSKLTVDKSRWQQGNVFSCSVLHEALHSHYTQKSLSLSPGKGGSDSWKEEVIKLCGRELVRAQIAICGKSTASDAAGANANAGARQLYSALANKCCHVGCTKRSLAQFC

- Potency Assay EC50 (nM), transient hRXFP1 cAMP assay: 1.8 nM
B17: SEQ ID NO: 213 (Fc fusion)
chain: B16 chain with Q293E

- Potency Assay EC50 (nM), transient hRXFP1 cAMP assay: 140 nM
B18: SEQ ID NO: 210 (Fc fusion)
chain: DKTHTCPPCPAPEAAGGPSVFLFPPKPKDTLMISRTPEVTCVVVDVSHEDPEVKFNWYVDGVEVHNAKTKPREEQYNSTYRVVSVLTVLHQDWLNGKEYKCKVSNKALAAPIEKTISKAKGQPREPQVYTLPPSRDELTKNQVSLTCLVKGFYPSDIAVEWESNGQPENNYKTTPPVLDSDGSFFLYSKLTVDKSRWQQGNVFSCSVLHEALHSHYTQKSLSLSPGGGSDSWMEEVIKLCGRELVRAQIAICGKSTGGEGGGEEGGGEGGQLYSALANKCCHVGCTKRSLARFC

- Potency Assay EC50 (nM), transient hRXFP1 cAMP assay: 162 nM
B19: SEQ ID NO: 80 (Fc fusion)
chain: B18 chain with M233Q, E259G, G260E, E263G, G270R, L272D

- Potency Assay EC50 (nM), transient hRXFP1 cAMP assay: 3.3 nM
B20: SEQ ID NO: 68 (Fc fusion)
chain: B18 chain with M233Q, E259G, G260E, E263G, G270R

- Potency Assay EC50 (nM), transient hRXFP1 cAMP assay: 101 nM
B21: SEQ ID NO: 211 (Fc fusion)
chain: B18 chain with M233Q

- Potency Assay EC50 (nM), transient hRXFP1 cAMP assay: 426 nM
B22: SEQ ID NO: 81 (Fc fusion)
chain: B11 chain with E261G, G264E, E265G, E266G, G268E, L272D

- Potency Assay EC50 (nM), transient hRXFP1 cAMP assay: 8 nM
B23: SEQ ID NO: 70 (Fc fusion)
chain: B11 chain with E261G, G264E, E265G, E266G, G268E

Source: US20230340058A1
